Measurements from US8722052B2, “Vaccinia virus protein A46 peptide and use thereof” (priority 2008, dated 2014).

Columns and labels:
[1] = molecular target: T1, TLR3 (Mus musculus, UniProt Q99MB1); assay: poly(I:C)-induced TNFα in RAW264.7 cells, ELISA; format: cell-based, murine; settings: peptide 5, 20 or 50 μM, 25 μg/ml Poly(I:C), 24 h
T1 construct: endogenous in cells; host or cells: RAW264.7
Experimental: FIGS. 10A and B are bar charts showing the effect of A464 on poly(I:C)-induced TNFα in murine RAW264.7 cells. Cells were seeded in 96 well plates (1.5×10^5 cells/nil) 24 hours before treatment. […] Supernatants were collected 24 hours after stimulation and assayed for TNFα by ELISA (A) and cells were assayed for viability by the MTT assay (B). No peptides were added to the control wells (black bars). Data is representative of at least three experiments each performed in triplicate and is expressed as mean±s.d;
Cytokine and chemokine production from cells or mouse serum was measured by ELISA using Duoset kits from R&D systems, according to the manufacturer's instructions.
In order to determine whether A464 (SEQ ID No. 20) was specific for TLR4, other TLR pathways were next assayed for sensitivity to A464 (SEQ ID No. 20). A scrambled version of A464 (SEQ ID No. 20) peptide was designed to use as a further control peptide, and this had the sequence: […] (ConA464, SEQ ID No. 32). The A464R (SEQ ID No. 20) and ConA464 (SEQ ID No. 32) peptides were assayed for inhibition of TLR2 signalling in THP-1 cells. Pam3CysK4 (S-(2,3-bis(palmitoyloxy)-(2-RS)-propyl)-N-palmitoyl-(R)-Cys-(S)-Ser-(S)-Lys(4)) is a synthetic tripalmitoylated lipopeptide that is recognized by a TLR2/TLR1 heterodimer and leads to activation of NFκB through a Mal- and MyD88-dependent pathway. […]

[2] = test system: IRF3; assay: LPS-induced IRF3 activation, IRF3-GAL4 reporter assay in HEK293_TLR4 cells; format: cell-based, human; settings: peptide 1, 5 or 10 μM, 10 ng/ml LPS 6 h
Experimental: FIG. 26 is a bar chart showing the effect of A464 on LPS-induced IRF3 activation in HEK293 cells. HEK293_TLR4 cells were seeded in 96 well plate (1.5×10^5 cells/ml) 24 hours before transfection with the plasmid DNA. Cells were transfected with a plasmid encoding IRF3-GAL4, together with pFR-luciferase and TK-Renilla reporter gene plasmids. The total amount of plasmid DNA transfected into the cells was made up to 230 ng/well by adding pcDNA. A464 (SEQ ID NO. 20) was added to the cells at a concentration of 1, 5 or 10 μM the next day, and cells were stimulated with 10 ng/ml LPS 1 hour after treatment with the peptide for 6 hours. Cells were harvested and assayed for IRF3 activation by reporter gene assay. No peptides were added to the control wells (black bars). Data is representative of two experiments, each performed in triplicate and is expressed as mean fold induction±s.d. relative to control levels;
HEK293 cells were transfected using GeneJuice® a proprietary non-toxic transfection reagent. 200 μl/well cells at a density of 1×10^5 cells/ml were seeded the day before transfection. 0.8 μl of GeneJuice was mixed with 9.2 μl of serum-free DMEM (SFM) per transfection and incubated for 5 min at room temperature before adding the appropriate amount of the plasmid DNA. […] Luciferase activity was analysed using a luminometer.

T1 sequence (Q99MB1 26-905): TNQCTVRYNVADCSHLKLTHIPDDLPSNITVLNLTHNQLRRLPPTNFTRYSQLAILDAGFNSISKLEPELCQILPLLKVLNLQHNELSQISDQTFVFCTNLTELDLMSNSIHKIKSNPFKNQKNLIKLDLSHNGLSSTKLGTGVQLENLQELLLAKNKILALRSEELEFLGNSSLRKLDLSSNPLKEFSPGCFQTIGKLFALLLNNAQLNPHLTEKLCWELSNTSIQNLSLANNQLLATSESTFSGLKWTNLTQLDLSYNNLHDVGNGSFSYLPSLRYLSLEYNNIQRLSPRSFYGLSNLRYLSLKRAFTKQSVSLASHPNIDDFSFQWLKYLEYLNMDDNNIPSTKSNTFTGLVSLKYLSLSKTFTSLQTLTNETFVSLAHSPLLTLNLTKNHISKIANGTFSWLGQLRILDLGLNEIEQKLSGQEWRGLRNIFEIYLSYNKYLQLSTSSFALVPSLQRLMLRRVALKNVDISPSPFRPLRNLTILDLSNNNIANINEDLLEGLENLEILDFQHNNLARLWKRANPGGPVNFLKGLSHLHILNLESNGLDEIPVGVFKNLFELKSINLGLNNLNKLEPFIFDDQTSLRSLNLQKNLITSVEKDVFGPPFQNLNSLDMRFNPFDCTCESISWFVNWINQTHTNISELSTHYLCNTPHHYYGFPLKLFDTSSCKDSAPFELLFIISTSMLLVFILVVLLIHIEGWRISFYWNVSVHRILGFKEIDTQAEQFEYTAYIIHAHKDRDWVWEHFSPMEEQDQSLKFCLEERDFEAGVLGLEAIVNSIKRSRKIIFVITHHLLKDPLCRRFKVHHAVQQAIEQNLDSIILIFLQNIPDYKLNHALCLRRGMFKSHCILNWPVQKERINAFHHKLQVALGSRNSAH

Sequence: KYSFKLILAEYRRRRRRRRR [Peptide A464]
- inhibition of poly(I:C)-induced mTNFα production [1]: some inhibition of mTNFα production in response to stimulation with 25 mg/ml Poly(I:C) was seen but only at a concentration of 50 μM
- inhibition of LPS-induced IRF3 activation [2]: completely inhibited LPS-induced IRF3 activation at 1 μM
